Results reported in IntAct's records for PubMed 32296183.

How the values were obtained:
dazp2_human DAZAP2 = dazp2_human DAZAP2 (UniProt Q15038)
pihd2_human PIH1D2 = pihd2_human PIH1D2 (UniProt Q8WWB5)
hspb8_human HSPB8 = hspb8_human HSPB8 (UniProt Q9UJY1)
ptn21_human PTPN21 = ptn21_human PTPN21 (UniProt Q16825)
prdm6_human PRDM6 = prdm6_human PRDM6 (UniProt Q9NQX0)
tri27_human TRIM27 = tri27_human TRIM27 (UniProt P14373)
leng8_human LENG8 = leng8_human LENG8 (UniProt Q96PV6)
magd1_human MAGED1 = magd1_human MAGED1 (UniProt Q9Y5V3)
vp37b_human VPS37B = vp37b_human VPS37B (UniProt Q9H9H4)
Sequence of vp37b_human VPS37B (Q9H9H4 whole entry): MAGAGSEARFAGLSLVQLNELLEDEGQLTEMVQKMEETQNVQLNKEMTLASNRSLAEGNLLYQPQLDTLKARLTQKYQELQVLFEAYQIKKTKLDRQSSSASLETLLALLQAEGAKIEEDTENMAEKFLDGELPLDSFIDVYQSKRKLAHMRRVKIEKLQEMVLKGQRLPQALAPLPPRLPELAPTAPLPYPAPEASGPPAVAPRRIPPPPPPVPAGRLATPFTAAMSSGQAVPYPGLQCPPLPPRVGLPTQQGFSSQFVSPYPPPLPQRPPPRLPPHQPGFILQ

mdfi_human MDFI = mdfi_human MDFI (UniProt Q99750)
fx4l1_human FOXD4L1 = fx4l1_human FOXD4L1 (UniProt Q9NU39)
Sequence of fx4l1_human FOXD4L1 (Q9NU39 whole entry): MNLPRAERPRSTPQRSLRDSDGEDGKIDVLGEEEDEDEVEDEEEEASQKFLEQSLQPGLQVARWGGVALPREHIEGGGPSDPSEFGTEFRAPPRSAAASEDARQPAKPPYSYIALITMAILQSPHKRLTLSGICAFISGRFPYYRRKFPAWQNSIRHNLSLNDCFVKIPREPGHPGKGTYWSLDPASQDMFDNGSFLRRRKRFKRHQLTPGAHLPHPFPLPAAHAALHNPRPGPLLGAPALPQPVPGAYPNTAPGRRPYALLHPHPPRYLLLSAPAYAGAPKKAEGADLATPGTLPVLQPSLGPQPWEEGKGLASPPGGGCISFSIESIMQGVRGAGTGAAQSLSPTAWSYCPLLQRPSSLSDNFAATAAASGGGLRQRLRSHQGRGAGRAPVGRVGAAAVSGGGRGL

pa2gx_human PLA2G10 = pa2gx_human PLA2G10 (UniProt O15496)
prr34_human PRR34 = prr34_human PRR34 (UniProt Q9NV39)
Sequence of prr34_human PRR34 (Q9NV39 whole entry): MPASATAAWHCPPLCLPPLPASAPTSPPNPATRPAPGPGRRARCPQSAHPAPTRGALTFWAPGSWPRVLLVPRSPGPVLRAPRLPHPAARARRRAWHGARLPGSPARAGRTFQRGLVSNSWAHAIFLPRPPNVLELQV

ctds1_human CTDSP1 = ctds1_human CTDSP1 (UniProt Q9GZU7)
egr4_human EGR4 = egr4_human EGR4 (UniProt Q05215)
hspb7_human HSPB7 = hspb7_human HSPB7 (UniProt Q9UBY9)
arrd3_human ARRDC3 = arrd3_human ARRDC3 (UniProt Q96B67)
dtx3_human DTX3 = dtx3_human DTX3 (UniProt Q8N9I9)
Sequence of dtx3_human DTX3 (Q8N9I9 whole entry): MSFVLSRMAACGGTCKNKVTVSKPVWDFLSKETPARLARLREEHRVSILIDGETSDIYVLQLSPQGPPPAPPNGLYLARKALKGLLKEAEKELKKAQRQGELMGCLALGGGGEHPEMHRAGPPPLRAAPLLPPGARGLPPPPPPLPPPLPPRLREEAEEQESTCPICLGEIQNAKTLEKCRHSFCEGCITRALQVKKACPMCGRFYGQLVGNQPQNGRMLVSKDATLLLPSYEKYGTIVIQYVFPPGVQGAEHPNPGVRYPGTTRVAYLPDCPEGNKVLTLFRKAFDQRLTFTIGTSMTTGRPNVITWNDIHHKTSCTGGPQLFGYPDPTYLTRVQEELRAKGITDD

noto_human NOTO = noto_human NOTO (UniProt A8MTQ0)
rm38_human MRPL38 = rm38_human MRPL38 (UniProt Q96DV4)
pdli7_human PDLIM7 = pdli7_human PDLIM7 (UniProt Q9NR12)
wbp2_human WBP2 = wbp2_human WBP2 (UniProt Q969T9)
trib3_human TRIB3 = trib3_human TRIB3 (UniProt Q96RU7)
cytm1_human CYSTM1 = cytm1_human CYSTM1 (UniProt Q9H1C7)
Sequence of cytm1_human CYSTM1 (Q9H1C7 whole entry): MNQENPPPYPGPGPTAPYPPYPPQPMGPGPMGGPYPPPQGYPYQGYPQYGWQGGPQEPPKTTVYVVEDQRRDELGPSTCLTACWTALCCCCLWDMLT

tm174_human TMEM174 = tm174_human TMEM174 (UniProt Q8WUU8)
Sequence of tm174_human TMEM174 (Q8WUU8 whole entry): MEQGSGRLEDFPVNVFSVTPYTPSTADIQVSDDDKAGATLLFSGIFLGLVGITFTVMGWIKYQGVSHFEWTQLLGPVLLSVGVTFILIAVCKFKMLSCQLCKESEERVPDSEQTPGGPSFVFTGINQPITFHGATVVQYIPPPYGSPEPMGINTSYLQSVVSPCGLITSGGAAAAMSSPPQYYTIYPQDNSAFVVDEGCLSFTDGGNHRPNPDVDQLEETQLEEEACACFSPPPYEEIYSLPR

Sequence of ptn21_human PTPN21 (Q16825 whole entry): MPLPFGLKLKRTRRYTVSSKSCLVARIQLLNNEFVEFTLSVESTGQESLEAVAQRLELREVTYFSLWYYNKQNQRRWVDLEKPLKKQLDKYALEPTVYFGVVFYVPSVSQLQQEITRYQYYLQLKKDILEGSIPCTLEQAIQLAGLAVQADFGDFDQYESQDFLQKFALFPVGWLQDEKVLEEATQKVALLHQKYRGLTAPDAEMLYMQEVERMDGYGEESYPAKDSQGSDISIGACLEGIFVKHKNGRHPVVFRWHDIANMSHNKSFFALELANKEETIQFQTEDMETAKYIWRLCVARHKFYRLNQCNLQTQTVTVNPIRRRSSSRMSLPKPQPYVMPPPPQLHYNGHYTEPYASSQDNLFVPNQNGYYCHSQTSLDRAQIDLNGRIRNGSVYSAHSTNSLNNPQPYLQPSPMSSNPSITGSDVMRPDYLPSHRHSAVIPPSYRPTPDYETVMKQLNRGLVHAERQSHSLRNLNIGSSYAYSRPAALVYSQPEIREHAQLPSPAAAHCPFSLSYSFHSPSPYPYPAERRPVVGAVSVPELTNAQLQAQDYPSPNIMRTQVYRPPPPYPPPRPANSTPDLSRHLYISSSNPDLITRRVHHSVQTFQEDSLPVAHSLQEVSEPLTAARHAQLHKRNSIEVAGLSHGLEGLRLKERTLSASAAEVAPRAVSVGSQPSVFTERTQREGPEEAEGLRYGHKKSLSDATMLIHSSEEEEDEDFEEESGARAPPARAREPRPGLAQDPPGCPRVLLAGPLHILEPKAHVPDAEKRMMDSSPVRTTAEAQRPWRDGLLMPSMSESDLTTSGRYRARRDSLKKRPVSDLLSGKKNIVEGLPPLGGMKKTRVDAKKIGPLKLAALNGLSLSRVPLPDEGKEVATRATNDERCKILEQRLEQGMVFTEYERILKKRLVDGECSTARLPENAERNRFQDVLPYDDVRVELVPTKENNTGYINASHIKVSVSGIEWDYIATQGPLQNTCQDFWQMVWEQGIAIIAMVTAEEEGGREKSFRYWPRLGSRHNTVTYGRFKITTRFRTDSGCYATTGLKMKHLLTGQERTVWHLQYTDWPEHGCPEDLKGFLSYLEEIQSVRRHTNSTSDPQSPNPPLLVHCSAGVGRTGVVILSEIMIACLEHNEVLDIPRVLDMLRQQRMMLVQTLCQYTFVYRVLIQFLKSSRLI
Sequence of leng8_human LENG8 (Q96PV6 whole entry): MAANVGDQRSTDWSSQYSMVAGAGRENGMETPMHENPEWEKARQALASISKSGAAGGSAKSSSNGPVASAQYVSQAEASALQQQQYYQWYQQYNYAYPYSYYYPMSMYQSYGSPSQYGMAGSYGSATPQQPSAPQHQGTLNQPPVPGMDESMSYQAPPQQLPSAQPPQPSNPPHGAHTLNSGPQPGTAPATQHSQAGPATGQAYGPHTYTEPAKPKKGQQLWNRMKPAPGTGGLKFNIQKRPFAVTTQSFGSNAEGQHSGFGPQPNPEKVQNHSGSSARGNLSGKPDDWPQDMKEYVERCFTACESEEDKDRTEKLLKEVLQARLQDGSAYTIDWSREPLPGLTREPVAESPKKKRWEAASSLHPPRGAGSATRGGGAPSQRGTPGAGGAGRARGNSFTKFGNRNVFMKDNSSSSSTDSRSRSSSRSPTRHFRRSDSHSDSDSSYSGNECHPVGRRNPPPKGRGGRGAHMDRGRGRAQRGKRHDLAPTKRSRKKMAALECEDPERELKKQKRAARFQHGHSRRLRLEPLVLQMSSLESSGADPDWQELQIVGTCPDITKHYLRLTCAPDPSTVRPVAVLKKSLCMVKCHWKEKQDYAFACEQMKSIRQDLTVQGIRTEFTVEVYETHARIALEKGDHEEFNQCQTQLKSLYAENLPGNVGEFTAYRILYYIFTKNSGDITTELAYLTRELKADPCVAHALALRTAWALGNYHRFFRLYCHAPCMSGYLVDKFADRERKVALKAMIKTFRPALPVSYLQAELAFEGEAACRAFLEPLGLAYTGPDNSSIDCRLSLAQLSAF
Sequence of hspb8_human HSPB8 (Q9UJY1 whole entry): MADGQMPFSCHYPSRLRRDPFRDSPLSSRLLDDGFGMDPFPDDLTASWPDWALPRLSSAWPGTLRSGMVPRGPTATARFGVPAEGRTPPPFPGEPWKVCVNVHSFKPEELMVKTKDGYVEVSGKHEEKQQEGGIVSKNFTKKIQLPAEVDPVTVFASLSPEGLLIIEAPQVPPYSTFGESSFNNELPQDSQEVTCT
Sequence of tri27_human TRIM27 (P14373 whole entry): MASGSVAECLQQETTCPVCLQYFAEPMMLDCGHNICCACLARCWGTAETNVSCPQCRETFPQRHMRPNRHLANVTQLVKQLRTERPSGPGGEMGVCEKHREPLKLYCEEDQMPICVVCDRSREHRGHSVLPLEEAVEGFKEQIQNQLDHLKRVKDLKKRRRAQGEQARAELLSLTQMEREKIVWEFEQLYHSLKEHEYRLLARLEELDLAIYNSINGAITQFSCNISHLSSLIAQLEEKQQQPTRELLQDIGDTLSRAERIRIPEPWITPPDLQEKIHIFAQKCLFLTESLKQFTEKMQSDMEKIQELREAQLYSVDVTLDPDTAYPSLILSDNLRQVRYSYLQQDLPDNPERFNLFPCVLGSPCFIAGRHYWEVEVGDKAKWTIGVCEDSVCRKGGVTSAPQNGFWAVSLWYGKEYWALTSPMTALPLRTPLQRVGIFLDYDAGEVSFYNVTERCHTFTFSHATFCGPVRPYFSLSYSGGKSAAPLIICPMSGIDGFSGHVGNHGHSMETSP
Sequence of EYA2, O00167-2 (O00167 other isoform, or with tags, fused parts or gaps): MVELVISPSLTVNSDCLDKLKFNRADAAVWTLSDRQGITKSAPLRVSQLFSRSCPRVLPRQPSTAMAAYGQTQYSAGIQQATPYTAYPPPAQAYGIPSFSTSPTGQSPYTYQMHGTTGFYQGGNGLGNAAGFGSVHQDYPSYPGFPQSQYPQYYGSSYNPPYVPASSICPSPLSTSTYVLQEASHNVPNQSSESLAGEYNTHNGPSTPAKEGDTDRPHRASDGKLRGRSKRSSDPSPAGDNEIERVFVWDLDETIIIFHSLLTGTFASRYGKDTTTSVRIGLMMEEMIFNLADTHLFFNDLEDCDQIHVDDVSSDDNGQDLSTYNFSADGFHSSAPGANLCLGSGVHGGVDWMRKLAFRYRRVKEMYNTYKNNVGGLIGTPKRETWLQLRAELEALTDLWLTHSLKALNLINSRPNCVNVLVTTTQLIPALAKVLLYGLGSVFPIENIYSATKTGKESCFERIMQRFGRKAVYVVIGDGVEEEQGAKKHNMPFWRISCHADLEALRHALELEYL
Sequence of dazp2_human DAZAP2 (Q15038 whole entry): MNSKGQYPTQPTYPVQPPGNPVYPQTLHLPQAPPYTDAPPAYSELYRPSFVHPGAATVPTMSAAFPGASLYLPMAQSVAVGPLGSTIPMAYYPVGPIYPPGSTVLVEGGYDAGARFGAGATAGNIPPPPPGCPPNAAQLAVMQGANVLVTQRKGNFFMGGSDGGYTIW

Substance	effect of a mutation on the interaction (dazp2_human DAZAP2)	effect of a mutation on the interaction (pihd2_human PIH1D2)	effect of a mutation on the interaction (hspb8_human HSPB8)	effect of a mutation on the interaction (ptn21_human PTPN21)	effect of a mutation on the interaction (tri27_human TRIM27)	effect of a mutation on the interaction (leng8_human LENG8)	effect of a mutation on the interaction (magd1_human MAGED1)	effect of a mutation on the interaction (vp37b_human VPS37B)	effect of a mutation on the interaction (mdfi_human MDFI)	effect of a mutation on the interaction (fx4l1_human FOXD4L1)	effect of a mutation on the interaction (pa2gx_human PLA2G10)	effect of a mutation on the interaction (prr34_human PRR34)	effect of a mutation on the interaction (ctds1_human CTDSP1)	effect of a mutation on the interaction (egr4_human EGR4)	effect of a mutation on the interaction (SIAH1, Q8IUQ4-2)	effect of a mutation on the interaction (EYA2, O00167-2)	effect of a mutation on the interaction (hspb7_human HSPB7)	effect of a mutation on the interaction (arrd3_human ARRDC3)	effect of a mutation on the interaction (dtx3_human DTX3)	effect of a mutation on the interaction (noto_human NOTO)	other results
BAG family molecular chaperone regulator 3 (Homo sapiens), O95817 L462P	with no effect	with no effect	with no effect	with no effect	with no effect	disrupting interaction strength	with no effect	with no effect	with no effect	with no effect	with no effect	with no effect	disrupting interaction strength	with no effect	disrupting interaction strength	with no effect	with no effect	with no effect	with no effect	with no effect	effect of a mutation on the interaction (RUNX1, Q01196-8): with no effect; effect of a mutation on the interaction (prdm6_human PRDM6): with no effect; effect of a mutation on the interaction (NR1H3, Q13133-3): with no effect; effect of a mutation on the interaction (rm38_human MRPL38): disrupting interaction strength; effect of a mutation on the interaction (pdli7_human PDLIM7): with no effect; effect of a mutation on the interaction (wbp2_human WBP2): with no effect; effect of a mutation on the interaction (trib3_human TRIB3): disrupting interaction strength; effect of a mutation on the interaction (cytm1_human CYSTM1): with no effect; effect of a mutation on the interaction (GLIS3, Q8NEA6-2): with no effect; effect of a mutation on the interaction (tm174_human TMEM174): disrupting interaction strength
BAG family molecular chaperone regulator 3 (Homo sapiens), O95817 R218W	with no effect	with no effect	with no effect	with no effect	with no effect	with no effect	with no effect	with no effect	with no effect	with no effect	with no effect	with no effect	with no effect	with no effect	with no effect	with no effect	with no effect	with no effect	with no effect	with no effect	effect of a mutation on the interaction (NR1H3, Q13133-3): with no effect; effect of a mutation on the interaction (pdli7_human PDLIM7): with no effect; effect of a mutation on the interaction (wbp2_human WBP2): with no effect; effect of a mutation on the interaction (trib3_human TRIB3): with no effect; effect of a mutation on the interaction (cytm1_human CYSTM1): with no effect; effect of a mutation on the interaction (GLIS3, Q8NEA6-2): with no effect; effect of a mutation on the interaction (tm174_human TMEM174): with no effect
BAG family molecular chaperone regulator 3 (Homo sapiens), O95817 R258W	with no effect	with no effect	with no effect	with no effect	with no effect	with no effect	with no effect	with no effect	with no effect	with no effect	with no effect	with no effect	with no effect	with no effect	with no effect	with no effect	with no effect	with no effect	with no effect	with no effect	effect of a mutation on the interaction (RUNX1, Q01196-8): with no effect; effect of a mutation on the interaction (prdm6_human PRDM6): with no effect; effect of a mutation on the interaction (NR1H3, Q13133-3): with no effect; effect of a mutation on the interaction (rm38_human MRPL38): disrupting interaction strength; effect of a mutation on the interaction (pdli7_human PDLIM7): with no effect; effect of a mutation on the interaction (wbp2_human WBP2): with no effect; effect of a mutation on the interaction (trib3_human TRIB3): with no effect; effect of a mutation on the interaction (GLIS3, Q8NEA6-2): with no effect; effect of a mutation on the interaction (tm174_human TMEM174): with no effect
